Assay results: article PMC10345191 (NPJ Vaccines, 2023)

Experiments:
[1] = target: T1, ConM SOSIP soluble gp140 Env trimer, unmodified (GMP) (HIV-1 (group M consensus)); test: BLI; conditions: both partners purified
T1 construct: copies: 3 + 3

[2] = target: T2, EDC cross-linked ConM SOSIP soluble gp140 Env trimer (GMP) (HIV-1 (group M consensus)); test: BLI; conditions: both partners purified
T2 construct: copies: 3 + 3

B1: PGT122 Fab (Fab, V domains shown)
VH: QVHLQESGPGLVKPSETLSLTCNVSGTLVRDNYWSWIRQPLGKQPEWIGYVHDSGDTNYNPSLKSRVHLSLDKSKNLVSLRLTGVTAADSAIYYCATTKHGRRIYGVVAFKEWFTYFYMDVWGKGTSVTVSS
VL: APTFVSVAPGQTARITCGEESLGSRSVIWYQQRPGQAPSLIIYNNNDRPSGIPDRFSGSPGSTFGTTATLTITSVEAGDEADYYCHIWDSRRPTNWVFGEGTTLIVL
notes: source: Freestyle 293F cells, serum-free, purified (HiTrap KappaSelect, Mono S)
[1]
  Kd: < 1 pM
  koff: < 1e-07 s⁻¹
[2]
  Kd: < 1 pM
  koff: < 1e-07 s⁻¹
